T1: MMP-2 (UniProt P08253 110-660)
T1 construct: MMP-2; source: bought: Merck Biosciences
T1 sequence (looked up): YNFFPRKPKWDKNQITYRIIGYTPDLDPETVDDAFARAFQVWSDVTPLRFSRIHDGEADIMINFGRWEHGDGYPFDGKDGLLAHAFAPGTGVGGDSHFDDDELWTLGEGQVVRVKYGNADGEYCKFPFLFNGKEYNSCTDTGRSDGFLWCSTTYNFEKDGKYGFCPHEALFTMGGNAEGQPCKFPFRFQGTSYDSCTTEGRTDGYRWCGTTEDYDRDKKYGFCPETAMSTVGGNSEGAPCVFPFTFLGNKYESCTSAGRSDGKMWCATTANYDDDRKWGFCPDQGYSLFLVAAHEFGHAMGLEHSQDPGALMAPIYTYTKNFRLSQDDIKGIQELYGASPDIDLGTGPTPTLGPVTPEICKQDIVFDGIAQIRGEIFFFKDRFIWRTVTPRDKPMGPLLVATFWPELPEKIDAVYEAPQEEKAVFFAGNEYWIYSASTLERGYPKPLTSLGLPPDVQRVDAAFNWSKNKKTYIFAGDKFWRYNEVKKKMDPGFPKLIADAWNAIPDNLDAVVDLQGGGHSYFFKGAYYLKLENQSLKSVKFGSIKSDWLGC

T2: Recombinant LRP-1 mini-domain DII with an Fc-tag (UniProt Q07954 852-1182)
T2 construct: No catalogue number is printed; also called LRP-1 domain II; source: bought: R&D
T2 sequence (looked up): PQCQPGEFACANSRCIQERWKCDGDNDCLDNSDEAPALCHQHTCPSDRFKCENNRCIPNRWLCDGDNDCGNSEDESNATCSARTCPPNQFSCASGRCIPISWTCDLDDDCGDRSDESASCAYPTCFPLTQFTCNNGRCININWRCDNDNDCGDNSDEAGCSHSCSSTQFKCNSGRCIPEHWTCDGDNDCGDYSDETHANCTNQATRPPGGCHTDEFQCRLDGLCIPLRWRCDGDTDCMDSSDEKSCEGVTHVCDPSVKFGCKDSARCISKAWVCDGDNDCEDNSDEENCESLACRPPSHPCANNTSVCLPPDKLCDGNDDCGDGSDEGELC

B1: FLAG-tagged TIMP-1 (tissue inhibitor of metalloproteinases-1), wild type (natural protein)
chain: not shown
modifications: glycosylated
notes: TIMP-1, cDNA from Origene (pCMV6-XL5) cloned into p3XFLAG-CMV14 from the start ATG; secreted by CHO cells. numbers count on: the mature protein; its concentration was measured with a Human TIMP-1 ELISA kit and the modelling used PDB 1UEA; also called T1-WT; wild-type TIMP-1; source: CHO cells, stably transfected; not shown: 3X-FLAG, C-terminal, kept
B2: FLAG-tagged TIMP-1 F12A (natural protein)
chain: not shown
modifications: glycosylated
notes: TIMP-1, cDNA from Origene, site-directed mutant F12A; secreted by CHO cells; also called T1-F12A; source: CHO cells, stably transfected; not shown: 3X-FLAG, C-terminal, kept
B3: FLAG-tagged TIMP-1 K47A (natural protein)
chain: not shown
modifications: glycosylated
notes: TIMP-1, cDNA from Origene, site-directed mutant K47A; secreted by CHO cells; also called T1-K47A; T1K47A; source: CHO cells, stably transfected; not shown: 3X-FLAG, C-terminal, kept
B4: eFluor-conjugated T1-WT (natural protein)
chain: not shown
modifications: biotinylated (ProtOn Biotin Labelling Kit), incubated with eFluor 450 Streptavidin
notes: TIMP-1 as in m1 (T1-WT), labelled. numbers count on: the mature protein; also called fluoT1-WT; fluo-T1-WT; source: CHO cells, stably transfected
B5: eFluor-conjugated T1-F12A (natural protein)
chain: not shown
modifications: biotinylated (ProtOn Biotin Labelling Kit), incubated with eFluor 450 Streptavidin
notes: TIMP-1 F12A as in m2, labelled; also called fluoT1-F12A; fluo-T1-F12A; source: CHO cells, stably transfected
B6: eFluor-conjugated T1-K47A (natural protein)
chain: not shown
modifications: biotinylated (ProtOn Biotin Labelling Kit), incubated with eFluor 450 Streptavidin
notes: TIMP-1 K47A as in m3, labelled; also called fluoT1-K47A; fluoT1K47A; source: CHO cells, stably transfected

Experiments:
MMP-9 = biological target: T3, MMP-9 (UniProt P14780 107-707); assay: enzyme inhibition assay (fluorogenic substrate, Morrison equation); 0.3 nM MMP-9 incubated 2 h at 27 °C with 0.7 to 11 nM TIMP-1 or mutants in 50 mM Tris-HCl pH 7.5, 150 mM NaCl, 5 mM CaCl2; 5 µM MMP-1/-9 fluorogenic substrate; details: both partners purified
T3 construct: MMP-9; source: bought: Merck Biosciences
T3 sequence (P14780 107-707): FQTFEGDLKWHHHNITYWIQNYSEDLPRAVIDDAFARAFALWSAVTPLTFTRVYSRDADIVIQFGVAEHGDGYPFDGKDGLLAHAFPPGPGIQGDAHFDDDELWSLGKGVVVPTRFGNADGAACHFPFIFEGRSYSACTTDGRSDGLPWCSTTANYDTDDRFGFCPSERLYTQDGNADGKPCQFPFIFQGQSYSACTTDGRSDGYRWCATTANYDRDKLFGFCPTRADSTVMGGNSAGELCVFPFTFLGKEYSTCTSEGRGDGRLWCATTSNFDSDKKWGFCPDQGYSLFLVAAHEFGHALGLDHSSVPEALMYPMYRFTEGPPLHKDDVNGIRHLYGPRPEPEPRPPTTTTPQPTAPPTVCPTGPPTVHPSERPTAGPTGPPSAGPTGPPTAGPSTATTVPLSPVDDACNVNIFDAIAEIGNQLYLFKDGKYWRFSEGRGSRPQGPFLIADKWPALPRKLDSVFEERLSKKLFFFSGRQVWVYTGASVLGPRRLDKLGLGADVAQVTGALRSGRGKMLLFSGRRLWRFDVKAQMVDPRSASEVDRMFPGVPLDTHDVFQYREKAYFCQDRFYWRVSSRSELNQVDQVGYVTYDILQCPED

MMP-2 = biological target: T1, MMP-2; assay: enzyme inhibition assay (fluorogenic substrate, Morrison equation); 0.76 nM MMP-2 incubated 2 h at 27 °C with 0.17 to 13.5 nM TIMP-1 or mutants in 50 mM Tris-HCl pH 7.5, 150 mM NaCl, 5 mM CaCl2; 2.5 µM MMP-2/-7 fluorogenic substrate; details: both partners purified
MMP-3 catalytic domain = biological target: T4, MMP-3 catalytic domain (UniProt P08254 100-272); assay: enzyme inhibition assay (fluorogenic substrate, Morrison equation); 2.3 nM MMP-3 catalytic domain incubated 1 h at 27 °C with 0.1 to 5.4 nM TIMP-1 or mutants in 50 mM Tris-HCl pH 7.5, 150 mM NaCl, 5 mM CaCl2; 3 µM MMP-3 fluorogenic substrate; details: both partners purified
T4 construct: MMP-3 catalytic domain; source: bought: Merck Biosciences
T4 sequence (P08254 100-272): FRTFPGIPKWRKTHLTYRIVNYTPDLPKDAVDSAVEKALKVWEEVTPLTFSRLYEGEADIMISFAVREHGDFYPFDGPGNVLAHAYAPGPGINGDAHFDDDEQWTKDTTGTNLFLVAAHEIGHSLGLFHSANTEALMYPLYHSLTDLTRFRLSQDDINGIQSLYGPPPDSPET

[1] = biological target: T2, Recombinant LRP-1 mini-domain DII with …; assay: SPR; Biacore T200; LRP-1 DII or DIV with Fc-tag immobilised on a CMD500m chip functionalised with anti-Fc antibody; TIMP-1 or mutants 5-160 nM injected, multi-cycle kinetics; HBS-N (50 mM Hepes, 150 mM NaCl, 0.005% Tween, pH 7.4); KD calculated from kon and koff; details: both partners purified
[2] = biological target: T5, Recombinant LRP-1 mini-domain DIV with an Fc-tag (UniProt Q07954 3332-3778); assay: as above; details: both partners purified
T5 construct: No catalogue number is printed; also called LRP-1 domain IV; source: bought: R&D
T5 sequence (Q07954 3332-3778): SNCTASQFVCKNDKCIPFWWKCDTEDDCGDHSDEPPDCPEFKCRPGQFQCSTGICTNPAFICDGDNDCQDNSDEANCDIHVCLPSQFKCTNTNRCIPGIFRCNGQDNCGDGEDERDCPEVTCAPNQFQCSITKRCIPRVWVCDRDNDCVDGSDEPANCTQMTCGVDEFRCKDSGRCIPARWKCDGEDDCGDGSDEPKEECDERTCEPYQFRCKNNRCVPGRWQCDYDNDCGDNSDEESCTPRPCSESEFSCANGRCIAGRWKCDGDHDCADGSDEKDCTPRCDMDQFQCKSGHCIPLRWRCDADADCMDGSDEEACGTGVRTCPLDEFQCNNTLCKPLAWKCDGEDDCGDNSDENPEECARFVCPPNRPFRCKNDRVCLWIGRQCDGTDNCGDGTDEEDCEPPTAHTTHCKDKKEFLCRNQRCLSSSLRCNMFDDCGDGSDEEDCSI

[3] = biological target: T6, low-density lipoprotein receptor-related protein-1 (LRP-1) on mouse cortical neurons (mouse (endogenous in cortical neurons), UniProt Q91ZX7 20-4545); assay: fluorescence of ligand bound to the cell surface (released by pronase, spectrofluorimetry); mouse cortical neurons incubated at 4 °C with 5 nM eFluor-conjugated TIMP-1 or mutants, with or without 500 nM RAP or 30 µg/mL LRP-1 blocking antibodies R2629; washed, surface-digested with 0.1% pronase, fluorescence of the supernatant; details: one partner purified
T6 construct: LRP-1 at the surface of primary cortical neurons; extracellular alpha-chain non-covalently associated with the transmembrane beta-chain; source: endogenous, primary cortical neurons from CD1 mouse embryos

| Binder | Ki (MMP-9) [nM] | Ki (MMP-2) [nM] | Ki (MMP-3 catalytic domain) [nM] | Kd [1] [nM] | koff [1] [s⁻¹] | kon [1] [M⁻¹ s⁻¹] | Kd [2] [nM] | koff [2] [s⁻¹] | kon [2] [M⁻¹ s⁻¹] | fluorescence at the cell surface [3] [A.U.] |
| --- | --- | --- | --- | --- | --- | --- | --- | --- | --- | --- |
| B1 | 4.25 | 0.09 | 1.18 | 10.8 | 0.0136 | 1.28e+06 | 37.4 | 0.0056 | 148000 |  |
| B2 | 4.76 | 0.06 | 0.58 | 18.5 | 0.0192 | 1.07e+06 | 38.7 | 0.0055 | 143000 |  |
| B3 | 4.4 | 0.03 | 0.55 |  |  |  | 26.5 | 0.0114 | 427000 |  |
| B4 |  |  |  |  |  |  |  |  |  | ~1500 |
| B5 |  |  |  |  |  |  |  |  |  | ~1500 |
| B6 |  |  |  |  |  |  |  |  |  | ~1500 |
